Source: patent publication US20250042970A1 (AURINIA PHARMACEUTICALS, published 2025)
Residue numbers refer to the chain shown, from its start. Read-outs that look alike come from different tables or passages of the source.

T1: FLAG-tagged cynomolgous APRIL (cynomolgus monkey, UniProt A0ACM8R0G4 110-250 (rhesus entry))
T1 construct: FLAG-tagged, expressed with TPA signal peptide; also called cyAPRIL
T1 sequence: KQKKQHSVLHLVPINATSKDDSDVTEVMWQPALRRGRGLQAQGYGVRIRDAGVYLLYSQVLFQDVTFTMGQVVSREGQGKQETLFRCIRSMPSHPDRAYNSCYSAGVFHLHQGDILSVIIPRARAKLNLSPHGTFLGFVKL

B1: Variant BAv8-10-Ig (Fc fusion, human)
chain: AGQCSQNEYFDHLLRACIPCQVRCSSNTPPLTCQRYCNAGVTNSVKGTNAERKSSVECPPSPAPPVAGPSVFLFPPKPKDTLMISRTPEVTCVVVDVSHEDPEVQFNWYVDGVEVHNAKTKPREEQFNSTFRVVSVLTVVHQDWLNGKEYKCKVSNKGLPAPIEKTISKTKGQPREPQVYTLPPSREEMTKNQVSLTCLVKGFYPSDISVEWESNGQPENNYKTTPPMLDSDGSFFLYSKLTVDKSRWQQGNVFSCSVMHEALHNHYTQKSLSLSPGK
notes: domain: Fc; also called Variant 8-10-Ig; BAv8-10-PIg18
B2: Variant BAv9-5-Ig (Fc fusion, human)
chain: B1 chain with H12R, L14V, V22L
notes: domain: Fc; also called Variant 9-5-Ig; BAv9-5-PIg18
B3: FLAG-tagged recombinant human APRIL (ligand)
chain: AVLTQKQKKQHSVLHLVPINATSKDDSDVTEVMWQPALRRGRGLQAQGYGVRIQDAGVYLLYSQVLFQDVTFTMGQVVSREGQGRQETLFRCIRSMPSHPDRAYNSCYSAGVFHLHQGDILSVIIPRARAKLNLSPHGTFLGFVKL
notes: KINEXA ligand; also called huAPRIL

Key:
[1] = target: T1, FLAG-tagged cynomolgous APRIL; test: BIACORE SPR
Procedure: (§1) For human BAFF, cynomolgus monkey APRIL, and mouse APRIL measurements, mouse monoclonal antibody (IgG1) anti-FLAG M2 (Sigma Aldrich, Cat. No. F1804) was immobilized on CM3 sensor chips (GE Healthcare, Cat. No. BR-1005-41) according to the manufacturer's protocol. Antibody was diluted to 30 μg/ml in immobilization buffer (10 mM pH 5±0.20; GE Healthcare; GE Healthcare, Catalog No. BR-1003-51). […] Unreacted sites were quenched with 35 μl of 1M ethanolamine-HCl, pH 8.5 (GE Healthcare, GE Healthcare, Cat. No. BR-1000-50). This procedure typically yielded 3,000-4,000 response units (RU) of coupled antibody.
(§2) The fusion polypeptides were diluted in HBS-EP buffer and flowed over ligand-coated sensor chips. The variant BCMA-Ig and surrogate control fusion proteins were injected at three concentrations (1.5 nM, 15 nM, and 150 nM at 30 μl/min for 2 minutes per association phase) in a single binding cycle, followed by a 20 minute incubation with HBS-EP buffer containing no protein at the same flow rate. A similar protocol was followed for Z-TACI-Ig, except that the injections were at 4.5 nM, 45 nM, and 450 nM.
(§3) Using available information from the structures and published literature, several residues in BAv8-10 were targeted for substitution with conserved as well as non-conserved residues and their effect on BAFF and APRIL binding was assessed by BIACORE.

FLAG-tagged human BAFF [2] = target: T2, FLAG-tagged human BAFF (human, UniProt Q9Y275 134-285, limits assumed); test: BIACORE SPR
T2 construct: used in BIACORE (Ex. 9) and KINEXA (Ex. 11); also called huBAFF
Procedure: as §1, §2, §3

[3] = target: B3; test: KinExA
FLAG-tagged human BAFF [4] = target: T2, FLAG-tagged human BAFF; test: KinExA
[5] = target: B3; test: KinExA; remark: listed apart in the source
FLAG-tagged human BAFF [6] = target: T2, FLAG-tagged human BAFF; test: KinExA; remark: listed apart in the source
[7] = target: T1, FLAG-tagged cynomolgous APRIL; test: BIACORE SPR; remark: listed apart in the source
Source text: as §1, with “The standard kinetic assay measures binding kinetics of trimeric ligand (e.g., human BAFF, cynomolgus monkey APRIL, mouse BAFF, or mouse APRIL) coated on sensor chips and dimeric analytes (e.g., variant BCMA-Ig fusion proteins) in the mobile phase. […] For” for “For”
as §2
(§4) The analyses described above were performed on protein preparations of representative variant BCMA ECD-Ig fusion polypeptides, as well as the Z-TACI-Ig and [S40G]huBCMA ECD-Ig control fusion polypeptides, and the data is presented in Table 1.

FLAG-tagged human BAFF [8] = target: T2, FLAG-tagged human BAFF; test: BIACORE SPR; remark: listed apart in the source
Source text: as §1, with “The standard kinetic assay measures binding kinetics of trimeric ligand (e.g., human BAFF, cynomolgus monkey APRIL, mouse BAFF, or mouse APRIL) coated on sensor chips and dimeric analytes (e.g., variant BCMA-Ig fusion proteins) in the mobile phase. […] For” for “For”
as §2, §4

membrane-huBAFF = membrane-huBAFF (human, UniProt Q9Y275 1-285); test: cell-based or functional assay
Variant BAv3-10-Ig = target: T3, Variant BAv3-10-Ig (human, UniProt P01859-1 99-326 = IgG part); test: KinExA
T3 construct: domain: Fc; also called Variant 3-10-Ig; BAv3-10-PIg18

Variant BAv8-9-Ig = target: T4, Variant BAv8-9-Ig (human, UniProt P01859-1 99-326 = IgG part); test: KinExA
T4 construct: domain: Fc; also called Variant 8-9-Ig; BAv8-9-PIg18

Variant BAv11-6-Ig = target: T5, Variant BAv11-6-Ig (human, UniProt P01859-1 99-326 = IgG part); test: KinExA
T5 construct: domain: Fc; also called Variant 11-6-Ig; BAv11-6-PIg18

Variant BAv9-1-Ig [9] = target: T6, Variant BAv9-1-Ig (human, UniProt P01859-1 99-326 = IgG part); test: KinExA
T6 construct: domain: Fc; also called Variant 9-1-Ig; BAv9-1-pIg18

Variant BAv8-10-Ig = target: B1; test: KinExA
Variant 9-3-Ig = target: T7, Variant 9-3-Ig (human, UniProt P01859-1 99-326 = IgG part); test: KinExA
T7 construct: domain: Fc; also called BAv9-3

Variant BAv9-5-Ig = target: B2; test: KinExA
Variant BAv1-12-Ig = target: T8, Variant BAv1-12-Ig (human, UniProt P01859-1 99-326 = IgG part); test: KinExA
T8 construct: domain: Fc; also called Variant 1-12-Ig

Variant BAv9-1-Ig [10] = target: T6, Variant BAv9-1-Ig; test: KinExA; remark: listed apart in the source
Procedure: Equilibrium measurements were performed using FLAG-tagged, recombinant huBAFF and huAPRIL ligands. Fixed ligand concentrations of human BAFF or human APRIL were incubated with serial dilutions of the variant BCMA ECD-Ig fusion polypeptides, and free ligand was detected in a KINEXA 3200 Instrument. variant BCMA ECD-Ig fusion polypeptides were first diluted in equilibration buffer (1×PBS, pH 7.4, 1 mg/ml BSA) to a range of concentrations from 10 nM to 100 fM. The linear portion of the dilution series was typically 2-fold. Ligands were diluted in equilibration buffer to fixed concentrations ranging from 5 to 20 pM and then incubated with the variant BCMA-Ig dilutions in total reaction volumes ranging from 4.5 to 15 ml. Samples were incubated at room temperature for 48-72 hours to reach equilibrium. For each data point, a fresh column of 850 μl of bead slurry coated with Variant BAv-238475-Ig was introduced into the KINEXA flow cell. Equilibrated samples ranging from 1 to 5 ml reaction volume were injected at a flow rate of 0.25 ml/min. […] The DyLight 649 fluorescent signal was detected using the red filter set (620/30 nanometer excitation filter, 670/40 nanometer emission filter, 645 nanometer dichroic filter) on the KinExA instrument and converted to a voltage signal that was directly proportional to the concentration of free ligand in the equilibrated sample.
The various fusion proteins described above were expressed and purified as described previously (Examples 2 and 3 for the CET1019AS based plasmids and Examples 7 and 8 for the pcDNA based plasmids). […] The BAv9-1-Ig Fc proteins typically exist in solution as a dimeric fusion protein. The purified fusion proteins were assayed for binding activity using BIACORE (Example 9) and KINEXA (Example 11) assays.

Binder | fold improvement over control [1] [fold] | fold improvement over control (FLAG-tagged human BAFF [2]) [fold] | Selectivity for huAPRIL (KD BAFF/KD APRIL) [3] [ratio] | Selectivity for huBAFF (KD APRIL/KD BAFF) (FLAG-tagged human BAFF [4]) [ratio] | fold improvement over control [5] [fold] | fold improvement over control (FLAG-tagged human BAFF [6]) [fold] | fold improvement KD vs control [7] [fold] | fold improvement KD vs control (FLAG-tagged human BAFF [8]) [fold] | IC50 (read off the curve) (NFkappaB luciferase signal of HEK293-huBCMA reporter cells stimulated with HEK-293 cells expressing membrane huBAFF) (membrane-huBAFF) [pM] | Kd (Variant BAv3-10-Ig) [pM] | Kd (Variant BAv8-9-Ig) [pM] | Kd (Variant BAv11-6-Ig) [pM] | Kd (Variant BAv9-1-Ig [9]) [pM] | Kd (Variant BAv8-10-Ig) [pM] | Kd (Variant 9-3-Ig) [pM] | Kd (Variant BAv9-5-Ig) [pM] | Kd (Variant BAv1-12-Ig) [pM] | Kd (Variant BAv9-1-Ig [10]) [pM]
B1 | 0.75 | 13.1 | 0.3 | 3.33 | 0.05 | 233 | 0.3 | 5.3 | – | – | – | – | – | – | – | – | – | –
B2 | – | – | 0.39 | 2.59 | 0.1 | 358 | 0.5 | 10.9 | ~500 | – | – | – | – | – | – | – | – | –
B3 | – | – | – | – | – | – | – | – | – | 0.337 | 0.0224 | 1.63 | 0.198 | 3.23 | 18.9 | 1.64 | 0.275 | 0.198
